Several values for one entry are separate records, joined by “and”; a condition that tells them apart may be missing. Equal values may be shown once. Blank lines part the entries; values can stand above or below the binder they belong to.
Columns and labels:
HER2-Fc protein = molecular target: T1, HER2-Fc protein (Homo sapiens, UniProt P04626); test: SPR; Biacore 3000 System; binding to HER2-Fc protein; which partner was immobilised is not stated; conditions: both partners purified
T1 construct: human epidermal growth factor receptor type 2 (HER2), fused to Fc; Probably the extracellular domain of HER2; The source may stand in Supplementary Methods

murine HER2 = molecular target: T2, murine HER2 (Mus musculus, UniProt P70424); test: ELISA; affinity, specificity and species cross-reactivity by ELISA; details in Supplementary Materials
T2 construct: murine HER2
T2 sequence (P70424 23-1256): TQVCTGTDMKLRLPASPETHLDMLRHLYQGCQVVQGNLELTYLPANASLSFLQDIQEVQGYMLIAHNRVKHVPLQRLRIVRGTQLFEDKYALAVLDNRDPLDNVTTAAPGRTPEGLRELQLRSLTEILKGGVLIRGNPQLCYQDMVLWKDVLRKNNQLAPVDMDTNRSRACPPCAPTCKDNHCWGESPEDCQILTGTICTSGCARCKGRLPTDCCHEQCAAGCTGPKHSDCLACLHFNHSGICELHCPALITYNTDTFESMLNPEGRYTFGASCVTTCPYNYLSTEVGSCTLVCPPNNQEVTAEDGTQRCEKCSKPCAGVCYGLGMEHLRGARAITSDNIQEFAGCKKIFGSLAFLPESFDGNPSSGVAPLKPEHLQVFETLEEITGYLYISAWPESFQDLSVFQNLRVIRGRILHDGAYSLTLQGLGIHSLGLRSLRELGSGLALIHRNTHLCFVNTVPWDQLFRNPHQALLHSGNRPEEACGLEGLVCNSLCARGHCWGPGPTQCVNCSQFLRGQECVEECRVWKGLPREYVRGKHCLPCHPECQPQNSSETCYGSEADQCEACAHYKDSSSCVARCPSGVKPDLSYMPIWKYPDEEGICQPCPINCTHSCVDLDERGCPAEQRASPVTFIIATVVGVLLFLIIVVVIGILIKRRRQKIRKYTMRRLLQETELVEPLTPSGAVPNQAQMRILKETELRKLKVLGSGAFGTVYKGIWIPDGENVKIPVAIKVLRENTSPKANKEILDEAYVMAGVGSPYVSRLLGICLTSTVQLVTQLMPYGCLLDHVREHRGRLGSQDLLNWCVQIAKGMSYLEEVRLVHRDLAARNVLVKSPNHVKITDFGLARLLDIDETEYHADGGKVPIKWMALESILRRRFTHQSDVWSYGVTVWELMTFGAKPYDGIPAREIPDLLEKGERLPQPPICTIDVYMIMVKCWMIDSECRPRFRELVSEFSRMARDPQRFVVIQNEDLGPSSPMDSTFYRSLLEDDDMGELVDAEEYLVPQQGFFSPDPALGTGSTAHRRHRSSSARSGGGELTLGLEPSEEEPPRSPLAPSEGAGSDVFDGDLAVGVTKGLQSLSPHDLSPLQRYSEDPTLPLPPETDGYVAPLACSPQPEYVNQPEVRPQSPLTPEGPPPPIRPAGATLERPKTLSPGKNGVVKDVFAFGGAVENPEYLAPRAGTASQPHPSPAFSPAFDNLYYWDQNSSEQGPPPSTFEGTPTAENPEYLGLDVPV

[1] = molecular target: T3, human epidermal growth factor receptor type 2 (HER2) on HER2-expressing carcinoma cells (Homo sapiens, endogenous on SKOV-3 cells, UniProt P04626); test: radioligand binding; cell-based affinity assay on HER2-expressing SKOV-3 cells; nonspecific binding measured with a 100-fold molar excess of trastuzumab; three therapy-level batches; conditions: one partner purified
T3 construct: human epidermal growth factor receptor type 2 (HER2), endogenous on SKOV-3 and BT474 cells; The assay tells which cell line was used; also called HER2 receptor; source: endogenous, on SKOV-3 human ovarian carcinoma cells and on BT474 human breast carcinoma cells

Kd (HER2-Fc protein): 0.21 nM
binding result (murine HER2): no binding
B1: VHH_1028 (VHH)
VHH: EVQLVESGGGLVQAGGSLRLSCAASGITFSINTMGWYRQAPGKQRELVALISSIGDTYYADSVRGRFTISRDNAKNTVYLQMNSLKPEDTAVYYCKRFRTAAQGTDYWGQGTQVTVSS
notes: Measured mass 12,844.0 Da (theoretical 12,844.2 Da); Engineered to have no lysine in its CDR regions; also called anti-HER2 VHH_1028; sdAb VHH_1028; source: developed and provided by Cereius, Inc; production and purification in Supplementary Materials

Kd [1]: 1.5 nM and 2.9 nM and 2.6 nM
B2: iso-[^131I]SGMIB-VHH_1028 (VHH)
VHH: B1 VHH
notes: as the chain of m1; source: VHH_1028 conjugated with iso-[^131I]SGMIB, isolated by gel filtration (PD-10)

Kd (HER2-Fc protein): 0.21 nM
B3: iso-SGMIB-VHH_1028 (VHH)
VHH: B1 VHH
notes: as the chain of m1; Measured mass 13,147.6 Da (calculated 13,146.4 Da); also called unlabeled iso-SGMIB-VHH_1028; 1:1 iso-SGMIB-VHH_1028 conjugate; source: VHH_1028 reacted with iso-SGMIB, 1:1 conjugate isolated by HIC-HPLC

From article PMC8864007, “Evaluation of an ^131I-labeled HER2-specific single domain antibody fragment for the radiopharmaceutical therapy of HER2-expressing cancers” (Scientific Reports, 2022)
